We go through one substance from publication doi:10.1101/2023.01.17.524398.

The target of this experiment is Aplysia punctata ink toxin (APIT), recombinant (Aplysia punctata). In words: MALDI mass spectrometry.

The term stoichiometry N denotes a count of units in the complex or per binding partner.

With “Aplysia punctata ink toxin (APIT), recombinant (enzyme)”, the stoichiometry N was determined as 2.
